Laboratory results reported in patent publication US20120014957A1 (AbbVie / Abbott, published 2012).

How the values were obtained:
[1] = biological target: T1, Recombinant Human EGF R/ErbB1 (human, UniProt P00533 25-645); experiment: SPR (Biacore)
T1 construct: Bought reagent
Experimental: (§1) The BIACORE assay (Biacore, Inc, Piscataway, N.J.) determines the affinity of antibodies or DVD-Ig with kinetic measurements of on-rate and off-rate constants. Binding of antibodies or DVD-Ig to a target antigen (for example, a purified recombinant target antigen) was determined by surface plasmon resonance-based measurements with a Biacore® 1000 or 3000 instrument (Biacore® AB, Uppsala, Sweden) using running HBS-EP (10 mM HEPES [pH 7.4], 150 mM NaCl, 3 mM EDTA, and 0.005% surfactant P20) at 25° C. All chemicals were obtained from Biacore® AB (Uppsala, Sweden) or otherwise from a different source as described in the text. For example, approximately 5000 RU of goat anti-mouse IgG, (Fcγ), fragment specific polyclonal antibody (Pierce Biotechnology Inc, Rockford, Ill.) diluted in 10 mM sodium acetate (pH 4.5) was directly immobilized across a CM5 research grade biosensor chip using a standard amine coupling kit according to manufacturer's instructions and procedures at 25 μg/ml. Unreacted moieties on the biosensor surface were blocked with ethanolamine. Modified carboxymethyl dextran surface in flowcell 2 and 4 was used as a reaction surface. Unmodified carboxymethyl dextran without goat anti-mouse IgG in flow cell 1 and 3 was used as the reference surface. For kinetic analysis, rate equations derived from the 1:1 Langmuir binding model were fitted simultaneously to association and dissociation phases of all eight injections (using global fit analysis) with the use of Biaevaluation 4.0.1 software. Purified antibodies or DVD-Ig were diluted in HEPES-buffered saline for capture across goat anti-mouse IgG specific reaction surfaces. Antibodies or DVD-Ig to be captured as a ligand (25 μg/ml) were injected over reaction matrices at a flow rate of 5 μl/min. The association and dissociation rate constants, kₒₙ (M⁻¹s⁻¹) and koff (s⁻¹) were determined under a continuous flow rate of 25 μl/min. Rate constants were derived by making kinetic binding measurements at different antigen concentrations ranging from 10-200 nM. The equilibrium dissociation constant (M) of the reaction between antibodies or DVD-Igs and the target antigen was then calculated from the kinetic rate constants by the following formula: KD=koff/kₒₙ. Binding was recorded as a function of time and kinetic rate constants were calculated.

Recombinant Human β-NGF = Recombinant Human β-NGF (human, UniProt P01138 122-241); experiment: cell-based or functional assay
Recombinant Human PlGF = biological target: T2, Recombinant Human PlGF (human, UniProt P49763-2 21-149, limits assumed); experiment: SPR (Biacore)
T2 construct: Bought reagent; also called P1GF
T2 sequence (looked up): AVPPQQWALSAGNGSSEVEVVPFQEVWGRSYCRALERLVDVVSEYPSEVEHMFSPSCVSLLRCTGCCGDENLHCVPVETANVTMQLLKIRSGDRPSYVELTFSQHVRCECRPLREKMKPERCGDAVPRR
Experimental: as §1

[2] = biological target: T3, Recombinant Human ErbB3/HER3 Fc Chimera (human, UniProt P21860 20-643); experiment: SPR (Biacore)
T3 construct: Bought reagent; not shown: IgG Fc part of the bought chimera
Experimental: as §1

[3] = biological target: T4, Recombinant Human MSP R/Ron (human, UniProt Q04912 25-571, limits assumed); experiment: SPR (Biacore)
T4 construct: Bought reagent
Experimental: as §1

Recombinant Human DLL4 = biological target: T5, Recombinant Human DLL4 (human, UniProt Q9NR61 27-524); experiment: SPR (Biacore)
T5 construct: Bought reagent of the Biacore analyses
Experimental: as §1

T5 sequence (Q9NR61 27-524 limits assumed): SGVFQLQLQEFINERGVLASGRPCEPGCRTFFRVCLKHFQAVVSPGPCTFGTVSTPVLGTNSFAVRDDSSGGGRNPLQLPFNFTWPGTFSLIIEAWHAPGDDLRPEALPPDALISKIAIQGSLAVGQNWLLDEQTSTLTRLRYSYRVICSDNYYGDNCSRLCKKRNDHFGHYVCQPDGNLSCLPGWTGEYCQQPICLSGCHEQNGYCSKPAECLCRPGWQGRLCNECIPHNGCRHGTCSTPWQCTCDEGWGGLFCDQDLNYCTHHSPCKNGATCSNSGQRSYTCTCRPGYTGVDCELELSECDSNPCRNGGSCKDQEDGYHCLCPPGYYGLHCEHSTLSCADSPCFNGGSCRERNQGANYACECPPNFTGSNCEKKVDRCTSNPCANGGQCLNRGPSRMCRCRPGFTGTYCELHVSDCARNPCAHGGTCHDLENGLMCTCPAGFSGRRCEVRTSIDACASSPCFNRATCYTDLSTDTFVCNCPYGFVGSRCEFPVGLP

B1: DVD1369 (bispecific antibody, human IgG1, kappa)
heavy: not shown
light: DIQMTQSPSSLSASVGDRVTITCRASEDIYNALAWYQQKPGKAPKLLIYNTDTLHTGVPSRFSGSGSGTDYTLTISSLQPEDFATYFCQHYFHYPRTFGQGTKVEIKRTVAAPDIQMTQSPSSMSVSVGDRVTITCHSSQDINSNIGWLQQKPGKSFKGLIYHGTNLDDGVPSRFSGSGSGTDYTLTISSLQPEDFATYYCVQYAQFPWTFGGGTKLEIKRTVAAPSVFIFPPSDEQLKSGTASVVCLLNNFYPREAKVQWKVDNALQSGNSQESVTEQDSKDSTYSLSSTLTLSKADYEKHKVYACEVTHQGLSSPVTKSFNRGEC
notes: DVD-Ig; also called DVD1369H; DVD1369L
Kd [1]: < 0.0024 nM | koff [1]: < 1e-06 s⁻¹ | kon [1]: 410000 M⁻¹ s⁻¹ | N-Terminal VD NGF Inhibition Assay EC50 (Recombinant Human β-NGF): 0.0056 nM

B2: DVD1318 (bispecific antibody, human IgG1, kappa)
heavy: not shown
light: DIEMTQSPDSLAVSLGERATINCRSSQSVLYSSSNRNYLAWYQQNPGQPPKLLIYWASTRESGVPDRFSGSGSGTDFTLTISSLQAEDVAVYYCQQYYSTPRTFGQGTKVEIKRTVAAPDIQMTQSPSSLSASVGDRVTITCRASEDIYNALAWYQQKPGKAPKLLIYNTDTLHTGVPSRFSGSGSGTDYTLTISSLQPEDFATYFCQHYFHYPRTFGQGTKVEIKRTVAAPSVFIFPPSDEQLKSGTASVVCLLNNFYPREAKVQWKVDNALQSGNSQESVTEQDSKDSTYSLSSTLTLSKADYEKHKVYACEVTHQGLSSPVTKSFNRGEC
C-Terminal VD NGF Inhibition Assay EC50 (Recombinant Human β-NGF): 0.0534 nM

B3: DVD1316 (bispecific antibody, human IgG1, kappa)
heavy: not shown
light: DVVMTQSPLSLPVTPGEPASISCRSSQSLLHSNGFNYVDWYLQKPGQSPHLLIYFGSYRASGVPDRFSGSGSGTDFTLKISRVEAEDVGVYYCMQALQTPPWTFGQGTKVEIRRTVAAPDIQMTQSPSSLSASVGDRVTITCRASEDIYNALAWYQQKPGKAPKLLIYNTDTLHTGVPSRFSGSGSGTDYTLTISSLQPEDFATYFCQHYFHYPRTFGQGTKVEIKRTVAAPSVFIFPPSDEQLKSGTASVVCLLNNFYPREAKVQWKVDNALQSGNSQESVTEQDSKDSTYSLSSTLTLSKADYEKHKVYACEVTHQGLSSPVTKSFNRGEC
C-Terminal VD NGF Inhibition Assay EC50 (Recombinant Human β-NGF): 0.874 nM

B4: AB047 (antibody, V domains shown)
VH: QVQLQQSGAELVKPGASVKISCKASGYTFTDYYINWVKLAPGQGLEWIGWIYPGSGNTKYNEKFKGKATLTIDTSSSTAYMQLSSLTSEDTAVYFCVRDSPFFDYWGQGTLLTVSS
VL: DIVLTQSPDSLAVSLGERVTMNCKSSQSLLNSGMRKSFLAWYQQKPGQSPKLLIYWASTRESGVPDRFTGSGSGTDFTLTISSVQAEDVAVYYCKQSYHLFTFGSGTKLEIKR
notes: Parent antibody; also called PlGF; AB047VH
Kd (Recombinant Human PlGF): 0.0282 nM | koff (Recombinant Human PlGF): 0.000108 s⁻¹ | kon (Recombinant Human PlGF): 3.8e+06 M⁻¹ s⁻¹

B5: DVD1320 (bispecific antibody, human IgG1, kappa)
heavy: not shown
light: DIQMTQSPSSLSASVGDRVTITCQASQDITNYLNWYQQKPGKAPKLLIYDASNLETGVPSRFSGSGSGTDFTFTISSLQPEDIATYNCQQCENFPITFGQGTRLEIKRTVAAPDIQMTQSPSSLSASVGDRVTITCRASEDIYNALAWYQQKPGKAPKLLIYNTDTLHTGVPSRFSGSGSGTDYTLTISSLQPEDFATYFCQHYFHYPRTFGQGTKVEIKRTVAAPSVFIFPPSDEQLKSGTASVVCLLNNFYPREAKVQWKVDNALQSGNSQESVTEQDSKDSTYSLSSTLTLSKADYEKHKVYACEVTHQGLSSPVTKSFNRGEC
notes: DVD-Ig; also called DVD1320H; DVD1320L
Kd [2]: < 0.0042 nM | koff [2]: < 1e-06 s⁻¹ | kon [2]: 240000 M⁻¹ s⁻¹

B6: DVD1315 (bispecific antibody, human IgG1, kappa)
heavy: not shown
light: DIQMTQSPSSLSASVGDRVTITCRASEDIYNALAWYQQKPGKAPKLLIYNTDTLHTGVPSRFSGSGSGTDYTLTISSLQPEDFATYFCQHYFHYPRTFGQGTKVEIKRTVAAPDVVMTQSPLSLPVTPGEPASISCRSSQSLLHSNGFNYVDWYLQKPGQSPHLLIYFGSYRASGVPDRFSGSGSGTDFTLKISRVEAEDVGVYYCMQALQTPPWTFGQGTKVEIRRTVAAPSVFIFPPSDEQLKSGTASVVCLLNNFYPREAKVQWKVDNALQSGNSQESVTEQDSKDSTYSLSSTLTLSKADYEKHKVYACEVTHQGLSSPVTKSFNRGEC
N-Terminal VD NGF Inhibition Assay EC50 (Recombinant Human β-NGF): 0.0022 nM

B7: DVD1370 (bispecific antibody, human IgG1, kappa)
heavy: not shown
light: DIQMTQSPSSMSVSVGDRVTITCHSSQDINSNIGWLQQKPGKSFKGLIYHGTNLDDGVPSRFSGSGSGTDYTLTISSLQPEDFATYYCVQYAQFPWTFGGGTKLEIKRTVAAPDIQMTQSPSSLSASVGDRVTITCRASEDIYNALAWYQQKPGKAPKLLIYNTDTLHTGVPSRFSGSGSGTDYTLTISSLQPEDFATYFCQHYFHYPRTFGQGTKVEIKRTVAAPSVFIFPPSDEQLKSGTASVVCLLNNFYPREAKVQWKVDNALQSGNSQESVTEQDSKDSTYSLSSTLTLSKADYEKHKVYACEVTHQGLSSPVTKSFNRGEC
notes: DVD-Ig; also called DVD1370H; DVD1370L
Kd [1]: < 0.0091 nM | koff [1]: < 1e-06 s⁻¹ | kon [1]: 110000 M⁻¹ s⁻¹ | C-Terminal VD NGF Inhibition Assay EC50 (Recombinant Human β-NGF): 5.96 nM

B8: AB005 (antibody, V domains shown)
VH: EVQLVQSGGGLVKPGGSLRLSCAASGFTFSSYAMHWVRQAPGKGLEWVAVISYDGSNKYYADSVKGRFTISRDNSKNTLYLQMNSLRAEDTAVYYCARFSGWPNNYYYYGMDVWGQGTTVTVSS
VL: DVVMTQSPLSLPVTPGEPASISCRSSQSLLHSNGFNYVDWYLQKPGQSPHLLIYFGSYRASGVPDRFSGSGSGTDFTLKISRVEAEDVGVYYCMQALQTPPWTFGQGTKVEIRR
notes: Parent antibody; also called RON
Kd [3]: 20.2 nM | koff [3]: 0.000739 s⁻¹ | kon [3]: 36600 M⁻¹ s⁻¹

B9: DVD1332 (bispecific antibody, human IgG1, kappa)
heavy: not shown
light: DIVLTQSPDSLAVSLGERVTMNCKSSQSLLNSGMRKSFLAWYQQKPGQSPKLLIYWASTRESGVPDRFTGSGSGTDFTLTISSVQAEDVAVYYCKQSYHLFTFGSGTKLEIKRTVAAPDIQMTQSPSSLSASVGDRVTITCRASEDIYNALAWYQQKPGKAPKLLIYNTDTLHTGVPSRFSGSGSGTDYTLTISSLQPEDFATYFCQHYFHYPRTFGQGTKVEIKRTVAAPSVFIFPPSDEQLKSGTASVVCLLNNFYPREAKVQWKVDNALQSGNSQESVTEQDSKDSTYSLSSTLTLSKADYEKHKVYACEVTHQGLSSPVTKSFNRGEC
notes: DVD-Ig; also called DVD1332H; DVD1332L
Kd (Recombinant Human PlGF): 0.055 nM | koff (Recombinant Human PlGF): 0.00017 s⁻¹ | kon (Recombinant Human PlGF): 3e+06 M⁻¹ s⁻¹

B10: AB063 (antibody, V domains shown)
VH: EVQLVESGGGLVQPGGSLRLSCAASGFTFSIYSMNWVRQAPGKGLEWVSYISSSSSTIYYADSVKGRFTISRDNAKNSLYLQMNSLRDEDTAVYYCARDRGDFDAFDIWGQGTMVTVSS
VL: DIQMTQSPSSLSASVGDRVTITCQASQDITNYLNWYQQKPGKAPKLLIYDASNLETGVPSRFSGSGSGTDFTFTISSLQPEDIATYNCQQCENFPITFGQGTRLEIKR
notes: Parent antibody; also called AB063VH
Kd [2]: 1.36 nM | koff [2]: 0.000117 s⁻¹ | kon [2]: 86600 M⁻¹ s⁻¹

B11: DVD1330 (bispecific antibody, human IgG1, kappa)
heavy: not shown
light: DIQMTQSPSSLSASVGDRVTITCRASQDVSTAVAWYQQKPGKAPKLLIYSASFLYSGVPSRFSGSGSGTDFTLTISSLQPEDFATTYYCQQSYTGTVTFGQGTKVEIKRTVAAPDIQMTQSPSSLSASVGDRVTITCRASEDIYNALAWYQQKPGKAPKLLIYNTDTLHTGVPSRFSGSGSGTDYTLTISSLQPEDFATYFCQHYFHYPRTFGQGTKVEIKRTVAAPSVFIFPPSDEQLKSGTASVVCLLNNFYPREAKVQWKVDNALQSGNSQESVTEQDSKDSTYSLSSTLTLSKADYEKHKVYACEVTHQGLSSPVTKSFNRGEC
notes: DVD-Ig; also called DVD1330H; DVD1330L
Kd (Recombinant Human DLL4): 0.38 nM | koff (Recombinant Human DLL4): 0.0002 s⁻¹ | kon (Recombinant Human DLL4): 520000 M⁻¹ s⁻¹
